Tests used:
HeLa Kyoto [1] = test: solubility in G1/S (NP-40 vs SDS abundance) (log2 ratio); higher = more soluble; conditions: cell cycle stage: G1/S
HeLa Kyoto [2] = test: solubility change mitosis vs G1/S (difference of NP-40 vs SDS log2 ratios) (log2 ratio difference); higher = more soluble in mitosis
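Wherever solubility change mitosis vs G1/S (difference of NP-40 vs SDS log2 ratios) is given: synchronized HeLa Kyoto cells (double thymidine block for G1/S, nocodazole release for mitosis), protein amounts in NP-40 versus SDS lysates quantified by mass spectrometry, three biological replicates.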
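Wherever solubility in G1/S (NP-40 vs SDS abundance) is given: HeLa Kyoto cells arrested at G1/S by double thymidine block, proteins quantified by TMT10plex mass spectrometry in mild NP-40 versus SDS extracts, three biological replicates.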

Row | Substance | solubility in G1/S (log2) (HeLa Kyoto [1]) | solubility change mitosis (log2) (HeLa Kyoto [2])
1 | MDVDAEREKITQEIKELERILDPGSSGSHVEISESSLESDSEADSLPSEDLDPADPPISEEERWGEASNDEDDPKDKTLPEDPETCLQLNMVYQEVIQEKLAEANLLLAQNREQQEELMRDLAGSKGTKVKDGKSLPPSTYMGHFMKPYFKDKVTGVGPPANEDTREKAAQGIKAFEELLVTKWKNWEKALLRKSVVSDRLQRLLQPKLLKLEYLHQKQSKVSSELERQALEKQGREAEKEIQDINQLPEEALLGNRLDSHDWEKISNINFEGSRSAEEIRKFWQNSEHPSINKQEWSREEEERLQAIAAAHGHLEWQKIAEELGTSRSAFQCLQKFQQHNKALKRKEWTEEEDRMLTQLVQEMRVGSHIPYRRIVYYMEGRDSMQLIYRWTKSLDPGLKKGYWAPEEDAKLLQAVAKYGEQDWFKIREEVPGRSDAQCRDRYLRRLHFSLKKGRWNLKEEEQLIELIEKYGVGHWAKIASELPHRSGSQCLSKWKIMMGKKQGLRRRRRRARHSVRWSSTSSSGSSSGSSGGSSSSSSSSSEEDEPEQAQAGEGDRALLSPQYMVPDMDLWVPARQSTSQPWRGGAGAWLGGPAASLSPPKGSSASQGGSKEASTTAAAPGEETSPVQVPARAHGPVPRSAQASHSADTRPAGAEKQALEGGRRLLTVPVETVLRVLRANTAARSCTQKEQLRQPPLPTSSPGVSSGDSVARSHVQWLRHRATQSGQRRWRHALHRRLLNRRLLLAVTPWVGDVVVPCTQASQRPAVVQTQADGLREQLQQARLASTPVFTLFTQLFHIDTAGCLEVVRERKALPPRLPQAGARDPPVHLLQASSSAQSTPGHLFPNVPAQEASKSASHKGSRRLASSRVERTLPQASLLASTGPRPKPKTVSELLQEKRLQEARAREATRGPVVLPSQLLVSSSVILQPPLPHTPHGRPAPGPTVLNVPLSGPGAPAAAKPGTSGSWQEAGTSAKDKRLSTMQALPLAPVFSEAEGTAPAASQAPALGPGQISVSCPESGLGQSQAPAASRKQGLPEAPPFLPAAPSPTPLPVQPLSLTHIGGPHVATSVPLPVTWVLTAQGLLPVPVPAVVSLPRPAGTPGPAGLLATLLPPLTETRAAQGPRAPALSSSWQPPANMNREPEPSCRTDTPAPPTHALSQSPAEADGSVAFVPGEAQVAREIPEPRTSSHADPPEAEPPWSGRLPAFGGVIPATEPRGTPGSPSGTQEPRGPLGLEKLPLRQPGPEKGALDLEKPPLPQPGPEKGALDLGLLSQEGEAATQQWLGGQRGVRVPLLGSRLPYQPPALCSLRALSGLLLHKKALEHKATSLVVGGEAERPAGALQASLGLVRGQLQDNPAYLLLRARFLAAFTLPALLATLAPQGVRTTLSVPSRVGSESEDEDLLSELELADRDGQPGCTTATCPIQGAPDSGKCSASSCLDTSNDPDDLDVLRTRHARHTRKRRRLV [SNAPC4] | 0.0147 | -0.0345
2 | MDVHDLFRRLGAGAKFDTRRFSADAARFQIGKRKYDFDSSEVLQGLDFFGNKKSVPGVCGASQTHQKPQNGEKKEESLTERKREQSKKKRKTMTSEIASQEEGATIQWMSSVEAKIEDKKVQRESKLTSGKLENLRKEKINFLRNKHKIHVQGTDLPDPIATFQQLDQEYKINSRLLQNILDAGFQMPTPIQMQAIPVMLHGRELLASAPTGSGKTLAFSIPILMQLKQPANKGFRALIISPTRELASQIHRELIKISEGTGFRIHMIHKAAVAAKKFGPKSSKKFDILVTTPNRLIYLLKQDPPGIDLASVEWLVVDESDKLFEDGKTGFRDQLASIFLACTSHKVRRAMFSATFAYDVEQWCKLNLDNVISVSIGARNSAVETVEQELLFVGSETGKLLAVRELVKKGFNPPVLVFVQSIERAKELFHELIYEGINVDVIHAERTQQQRDNTVHSFRAGKIWVLICTALLARGIDFKGVNLVINYDFPTSSVEYIHRIGRTGRAGNKGKAITFFTEDDKPLLRSVANVIQQAGCPVPEYIKGFQKLLSKQKKKMIKKPLERESISTTPKCFLEKAKDKQKKVTGQNSKKKVALEDKS [DDX52] | -1.37 | 1.04
3 | MEAPEGGGGGPAARGPEGQPAPEARVHFRVARFIMEAGVKLGMRSIPIATACTIYHKFFCETNLDAYDPYLIAMSSIYLAGKVEEQHLRTRDIINVSNRYFNPSGEPLELDSRFWELRDSIVQCELLMLRVLRFQVSFQHPHKYLLHYLVSLQNWLNRHSWQRTPVAVTAWALLRDSYHGALCLRFQAQHIAVAVLYLALQVYGVEVPAEVEAEKPWWQVFNDDLTKPIIDNIVSDLIQIYTMDTEIP [FAM58A] | -0.46 | 0.235
4 | MEASRCRLSPSGDSVFHEEMMKMRQAKLDYQRLLLEKRQRKKRLEPFMVQPNPEARLRRAKPRASDEQTPLVNCHTPHSNVILHGIDGPAAVLKPDEVHAPSVSSSVVEEDAENTVDTASKPGLQERLQKHDISESVNFDEETDGISQSACLERPNSASSQNSTDTGTSGSATAAQPADNLLGDIDDLEDFVYSPAPQGVTVRCRIIRDKRGMDRGLFPTYYMYLEKEENQKIFLLAARKRKKSKTANYLISIDPVDLSREGESYVGKLRSNLMGTKFTVYDRGICPMKGRGLVGAAHTRQELAAISYETNVLGFKGPRKMSVIIPGMTLNHKQIPYQPQNNHDSLLSRWQNRTMENLVELHNKAPVWNSDTQSYVLNFRGRVTQASVKNFQIVHKNDPDYIVMQFGRVADDVFTLDYNYPLCAVQAFGIGLSSFDSKLACE [TULP3] | 0.0464 | -0.00836
5 | MED13L | 0.0923 | -0.119
6 | MEEVREGHALGGGMEADGPASLQELPPSPRSPSPPPSPPPLPSPPSLPSPAAPEAPELPEPAQPSEAHARQLLLEEWGPLSGGLELPQRLTWKLLLLRRPLYRNLLRSPNPEGINIYEPAPPTGPTQRPLETLGNFRGWYIRTEKLQQNQSWTVKQQCVDLLAEGLWEELLDDEQPAITVMDWFEDSRLDACVYELHVWLLAADRRTVIAQHHVAPRTSGRGPPGRWVQVSHVFRHYGPGVRFIHFLHKAKNRMEPGGLRRTRVTDSSVSVQLRE [NCCRP1] | 0.178 | -0.0982
7 | MEEVTTCSFNSPLFRQEDDRGITYRIPALLYIPPTHTFLAFAEKRSTRRDEDALHLVLRRGLRIGQLVQWGPLKPLMEATLPGHRTMNPCPVWEQKSGCVFLFFICVRGHVTERQQIVSGRNAARLCFIYSQDAGCSWSEVRDLTEEVIGSELKHWATFAVGPGHGIQLQSGRLVIPAYTYYIPSWFFCFQLPCKTRPHSLMIYSDDLGVTWHHGRLIRPMVTVECEVAEVTGRAGHPVLYCSARTPNRCRAEALSTDHGEGFQRLALSRQLCEPPHGCQGSVVSFRPLEIPHRCQDSSSKDAPTIQQSSPGSSLRLEEEAGTPSESWLLYSHPTSRKQRVDLGIYLNQTPLEAACWSRPWILHCGPCGYSDLAALEEEGLFGCLFECGTKQECEQIAFRLFTHREILSHLQGDCTSPGRNPSQFKSN [NEU3] | -0.0555 | -0.0358
8 | MEGRPPPEGRPPPRPRTGRAPRGRRRAVFAAVLHWSHITHLFENDRHFSHLSTLEREMAFRTEMGLYYSYFKTIVEAPSFLNGVWMIMNDKLTEYPLVINTLKRFNLYPEVILASWYRIYTKIMDLIGIQTKICWTVTRGEGLSPIESCEGLGDPACFYVAVIFILNGLMMALFFIYGTYLSGSRLGGLVTVLCFFFNHGECTRVMWTPPLRESFSYPFLVLQMLLVTHILRATKLYRGSLIALCISNVFFMLPWQFAQFVLLTQIASLFAVYVVGYIDICKLRKIIYIHMISLALCFVLMFGNSMLLTSYYASSLVIIWGILAMKPHFLKINVSELSLWVIQGCFWLFGTVILKYLTSKIFGIADDAHIGNLLTSKFFSYKDFDTLLYTCAAEFDFMEKETPLRYTKTLLLPVVLVVFVAIVRKIISDMWGVLAKQQTHVRKHQFDHGELVYHALQLLAYTALGILIMRLKLFLTPHMCVMASLICSRQLFGWLFCKVHPGAIVFAILAAMSIQGSANLQTQWNIVGEFSNLPQEELIEWIKYSTKPDAVFAGAMPTMASVKLSALRPIVNHPHYEDAGLRARTKIVYSMYSRKAAEEVKRELIKLKVNYYILEESWCVRRSKPGCSMPEIWDVEDPANAGKTPLCNLLVKDSKPHFTTVFQNSVYKVLEVVKE [DPY19L1] | -0.264 | 0.0231
9 | MEKRLQEAQLYKEEGNQRYREGKYRDAVSRYHRALLQLRGLDPSLPSPLPNLGPQGPALTPEQENILHTTQTDCYNNLAACLLQMEPVNYERVREYSQKVLERQPDNAKALYRAGVAFFHLQDYDQARHYLLAAVNRQPKDANVRRYLQLTQSELSSYHRKEKQLYLGMFG [TTC9C] | 0.247 | 0.459
10 | MEKSWMLWNFVERWLIALASWSWALCRISLLPLIVTFHLYGGIILLLLIFISIAGILYKFQDVLLYFPEQPSSSRLYVPMPTGIPHENIFIRTKDGIRLNLILIRYTGDNSPYSPTIIYFHGNAGNIGHRLPNALLMLVNLKVNLLLVDYRGYGKSEGEASEEGLYLDSEAVLDYVMTRPDLDKTKIFLFGRSLGGAVAIHLASENSHRISAIMVENTFLSIPHMASTLFSFFPMRYLPLWCYKNKFLSYRKISQCRMPSLFISGLSDQLIPPVMMKQLYELSPSRTKRLAIFPDGTHNDTWQCQGYFTALEQFIKEVVKSHSPEEMAKTSSNVTII [ABHD13] | -0.091 | -0.176
11 | MELPAVNLKVILLGHWLLTTWGCIVFSGSYAWANFTILALGVWAVAQRDSIDAISMFLGGLLATIFLDIVHISIFYPRVSLTDTGRFGVGMAILSLLLKPLSCCFVYHMYRERGGELLVHTGFLGSSQDRSAYQTIDSAEAPADPFAVPEGRSQDARGY [AGTRAP] | 0.0387 | -0.217
